Read-outs that look alike come from different tables or passages of the source.
Tests used:
[1] = target: Ag85c (Mycobacterium tuberculosis, UniProt P9WQN9); assay: biochemical
[2] = test system: OC[C@H]1O[C@H](O[C@H]2O[C@H](CO)[C@@H](O)[C@H](O)[C@H]2O)[C@H](O)[C@@H](O)[C@@H]1O; assay: purified protein

Ag85c, sequence (P9WQN9 46-340 limits assumed): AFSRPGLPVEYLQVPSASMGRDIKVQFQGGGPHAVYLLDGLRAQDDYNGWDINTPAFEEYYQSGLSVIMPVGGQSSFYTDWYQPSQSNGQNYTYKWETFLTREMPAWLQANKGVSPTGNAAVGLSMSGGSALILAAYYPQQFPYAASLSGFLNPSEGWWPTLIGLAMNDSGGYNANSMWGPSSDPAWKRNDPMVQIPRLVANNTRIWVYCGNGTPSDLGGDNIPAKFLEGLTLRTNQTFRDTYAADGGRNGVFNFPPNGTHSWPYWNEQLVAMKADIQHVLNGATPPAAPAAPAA

| Compound | Ki [1] [µM] | Km [2] [µM] | kcat [2] [s⁻¹] | kcat/Km [2] [M⁻¹ s⁻¹] | Km ([2]; Ser-His-Asp catalytic triad at the trehalose binding site) [µM] |
| --- | --- | --- | --- | --- | --- |
| CCCCCC(=O)OC[C@H]1O[C@H](O[C@H]2O[C@H](COC(=O)CCCCC)[C@@H](O)[C@H](O)[C@H]2O)[C@H](O)[C@@H](O)[C@@H]1O [2b, 6,6’-di-hexanoyltrehalose] | 355 ± 106 | – | – | – | – |
| Ag85a (Mycobacterium tuberculosis H37Rv) | – | 175 | 0.014 | 82 | – |
| Ag85b (Mycobacterium tuberculosis H37Rv) | – | 112 | 0.003 | 30 | – |
| Ag85c (Mycobacterium tuberculosis H37Rv) | – | – | – | – | 16.9 ± 5.3 |

From article PMC11042539 (Journal of the American Chemical Society, 2011)
